Publication doi:10.1101/2021.08.02.454712

Target: recombinant Heme Detoxification Protein (PfHDP) (Plasmodium falciparum) (UniProt Q8IL04)
Assay: SPR

With “recombinant C-terminal Plasmodium falciparum exportin 2 (Pfexp-2), amino acids 139-285 (domain or fragment)” the Kd was 1100 nM.
